{
  "source": "patent US8575097B2",
  "about": "“Exendin variant and conjugate thereof” (Pegbio Co., Ltd., priority 2009, dated 2013)",
  "tested_on": "guinea pigs",
  "assay": "Systematically allergic reaction in guinea pigs (Example 23)",
  "assay_type": "in vivo, guinea pig",
  "conditions": "albumin 240 mg/kg via toe vein",
  "from_the_text": "44 male healthy guinea pigs were provided, and the body weight of each guinea pig was about 300 g.",
  "data": [
    {"molecule": "chicken ovalbumin (protein, UniProt P01012 2-386, looked up, chicken ovalbumin, albumin group in the guinea pig allergy test) Ovalbumin: GSIGAASMEFCFDVFKELKVHHANENIFYCPIAIMSALAMVYLGAKDSTRTQINKVVRFDKLPGFGDSIEAQCGTSVNVHSSLRDILNQITKPNDVYSFSLASRLYAEERYPILPEYLQCVKELYRGGLEPINFQTAADQARELINSWVESQTNGIIRNVLQPSSVDSQTAMVLVNAIVFKGLWEKAFKDEDTQAMPFRVTEQESKPVQMMYQIGLFRVASMASEKMKILELPFASGTMSMLVLLPDEVSGLEQLESIINFEKLTEWTSSNVMEERKIKVYLPRMKMEEKYNLTSVLMAMGITDVFSSSANLSGISSAESLKISQAVHAAHAEINEAGREVVGSAEAGVDAASVSEEFRADHPFLFCIKHIATNAVLFFGRCVSP", "values": [
      {"measurement": "time to death after stimulation", "value": "< 2", "unit": "min"}
    ]}
  ]
}
